± gives the uncertainty stated by the source.
Test: protein stability index of a GFP-peptide fusion (yeast GPS) (PSI 1-4); higher = more stable; sorted into four equal gates, so the index is relative within each strain
Outline: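 For each peptide, the protein stability index sums the read frequency in every gate after multiplying it by the gate number. Read frequencies came from plasmids that were PCR-amplified from each gate and Illumina-sequenced, with reads assigned to strains by barcodes. The gates were four equal bins of GFP/Cherry fluorescence ratio applied to mid-log yeast in leucine-free medium carrying a pooled library of tiled 17-residue yeast protein peptides fused downstream of GFP on a Cherry-expressing plasmid.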

DPTLTTTTSFTTSEATA [RPN4]
protein stability index (doa10∆): 2.85 ± 0.075 | protein stability index (pdr5∆): 2.98 ± 0.067 | protein stability index (san1∆): 2.58 ± 0.057 | protein stability index (ubr1∆): 2.92 ± 0.066

LHKIFYKVLKNNGLPEC [YCG1]
protein stability index (doa10∆): 1.68 ± 0.045 | protein stability index (pdr5∆): 1.95 ± 0.043 | protein stability index (san1∆): 2.45 ± 0.049 | protein stability index (ubr1∆): 2.13 ± 0.04

SFEETVEILFEAGASAE [RPO21]
protein stability index (doa10∆): 2.7 ± 0.11 | protein stability index (pdr5∆): 2.77 ± 0.09 | protein stability index (san1∆): 2.89 ± 0.063 | protein stability index (ubr1∆): 2.51 ± 0.093

QNAAANAEAKGLDATKL [RPL17A]
protein stability index (doa10∆): 2.8 ± 0.28 | protein stability index (pdr5∆): 3.39 ± 0.24 | protein stability index (san1∆): 1.93 ± 0.25

KIFWERLKEINGWEKYL [ISW2]
protein stability index (ubr1∆): 1.46 ± 0.24

QSQLNVTLSQLVSVTST [MED8]
protein stability index (doa10∆): 1.39 ± 0.025 | protein stability index (pdr5∆): 1.79 ± 0.026 | protein stability index (san1∆): 1.44 ± 0.049 | protein stability index (ubr1∆): 1.3 ± 0.019

VEETEVPTVPPSQSEEQ [MED4]
protein stability index (doa10∆): 2.73 ± 0.079 | protein stability index (pdr5∆): 2.69 ± 0.1 | protein stability index (san1∆): 2.43 ± 0.13 | protein stability index (ubr1∆): 2.74 ± 0.055

DEDWSVRIDKALELDDT [ECM29]
protein stability index (doa10∆): 2.76 ± 0.18 | protein stability index (pdr5∆): 3.38 ± 0.17

GTVSRVNRLLSVIPLKG [RRP4]
protein stability index (doa10∆): 1.25 ± 0.058 | protein stability index (pdr5∆): 1.38 ± 0.05 | protein stability index (san1∆): 1.2 ± 0.14 | protein stability index (ubr1∆): 1.23 ± 0.048

SWVQPRIISGDQITKMK [RPN9]
protein stability index (doa10∆): 3.76 ± 0.26 | protein stability index (pdr5∆): 3.27 ± 0.12 | protein stability index (san1∆): 2.94 ± 0.14 | protein stability index (ubr1∆): 3.56 ± 0.2

IYKPLLFEIVSNADTNQ [SRB8]
protein stability index (doa10∆): 1.71 ± 0.06 | protein stability index (pdr5∆): 2.11 ± 0.066 | protein stability index (san1∆): 2.33 ± 0.09 | protein stability index (ubr1∆): 1.49 ± 0.078

KAAFLGSEVRLRDDTLP [COR1]
protein stability index (doa10∆): 2.54 ± 0.06 | protein stability index (pdr5∆): 2.98 ± 0.057 | protein stability index (san1∆): 2.93 ± 0.061 | protein stability index (ubr1∆): 2.68 ± 0.05

RDREPKEPVALIETVRQ [RPN2]
protein stability index (doa10∆): 3.32 ± 0.081 | protein stability index (pdr5∆): 3.47 ± 0.12 | protein stability index (san1∆): 3.12 ± 0.079 | protein stability index (ubr1∆): 3.34 ± 0.071

QKVSQLESADKQLEKRD [POP4]
protein stability index (doa10∆): 3.26 ± 0.069 | protein stability index (pdr5∆): 3.35 ± 0.083 | protein stability index (san1∆): 3.27 ± 0.07 | protein stability index (ubr1∆): 3.35 ± 0.077

VVGVVGYVETPRGLRSL [RPL3]
protein stability index (doa10∆): 2.15 ± 0.072 | protein stability index (pdr5∆): 2.68 ± 0.049 | protein stability index (san1∆): 3.15 ± 0.056 | protein stability index (ubr1∆): 2.98 ± 0.095

YVSALKRINKFLDSVHK [POP7]
protein stability index (doa10∆): 1.91 ± 0.049 | protein stability index (pdr5∆): 1.56 ± 0.037 | protein stability index (san1∆): 2 ± 0.068 | protein stability index (ubr1∆): 1.8 ± 0.034

VGLSQPDAKIQVRRDIP [YMR129W/POM152]
protein stability index (doa10∆): 2.98 ± 0.082 | protein stability index (pdr5∆): 2.76 ± 0.14 | protein stability index (san1∆): 2.51 ± 0.059 | protein stability index (ubr1∆): 2.97 ± 0.066

KRAEKKAKERLQALKAN [SNF2]
protein stability index (doa10∆): 2.72 ± 0.12 | protein stability index (pdr5∆): 2.6 ± 0.15 | protein stability index (san1∆): 1.73 ± 0.12 | protein stability index (ubr1∆): 1.3 ± 0.048

DKQDGTAKPAFSFGAKP [YJL041W/NSP1]
protein stability index (doa10∆): 3.24 ± 0.087 | protein stability index (pdr5∆): 3.29 ± 0.077 | protein stability index (san1∆): 3.22 ± 0.057 | protein stability index (ubr1∆): 3.35 ± 0.086

ATFLKLAAPQLVQMYIG [RPT5]
protein stability index (doa10∆): 1.31 ± 0.25 | protein stability index (san1∆): 1.2 ± 0.21 | protein stability index (ubr1∆): 1.44 ± 0.23

LESTKAETDYVDPKRLA [DSN1]
protein stability index (doa10∆): 2.96 ± 0.063 | protein stability index (pdr5∆): 3.19 ± 0.067 | protein stability index (san1∆): 3.04 ± 0.053 | protein stability index (ubr1∆): 3.26 ± 0.075

TKCSTVVKASELDQFWQ [SRP14]
protein stability index (doa10∆): 2.17 ± 0.041 | protein stability index (pdr5∆): 2.14 ± 0.047 | protein stability index (san1∆): 2.04 ± 0.082 | protein stability index (ubr1∆): 1.72 ± 0.03

RRRKGISTGGFMSNDGP [SNU114]
protein stability index (doa10∆): 1.46 ± 0.086 | protein stability index (pdr5∆): 1.47 ± 0.1 | protein stability index (san1∆): 1.18 ± 0.14 | protein stability index (ubr1∆): 1.33 ± 0.063

SLTTVWAEHLSDEVKRR [RPL3]
protein stability index (doa10∆): 2.87 ± 0.13 | protein stability index (pdr5∆): 2.85 ± 0.18 | protein stability index (ubr1∆): 3 ± 0.18

MSGSLKSLDKKIAKRRQ [POP3]
protein stability index (doa10∆): 3.19 ± 0.24 | protein stability index (pdr5∆): 2.98 ± 0.21 | protein stability index (ubr1∆): 3.5 ± 0.2

NADLDVKDELMFSPLVD [RPO21]
protein stability index (doa10∆): 3.17 ± 0.047 | protein stability index (pdr5∆): 3.08 ± 0.04 | protein stability index (san1∆): 3.15 ± 0.041 | protein stability index (ubr1∆): 3.31 ± 0.034

LDPYERAIYSYLSGAIP [YDL116W/NUP84]
protein stability index (doa10∆): 2.83 ± 0.12 | protein stability index (pdr5∆): 3.11 ± 0.082 | protein stability index (san1∆): 3.13 ± 0.098 | protein stability index (ubr1∆): 3.11 ± 0.13

HGINLQNKKNLKWVAVV [SSN2]
protein stability index (doa10∆): 2.98 ± 0.066 | protein stability index (pdr5∆): 3.11 ± 0.051 | protein stability index (san1∆): 3.05 ± 0.057 | protein stability index (ubr1∆): 3.23 ± 0.057

TTDSLTKVLQADLPGSY [YMR129W/POM152]
protein stability index (doa10∆): 2.38 ± 0.082 | protein stability index (pdr5∆): 2.79 ± 0.14 | protein stability index (san1∆): 2.49 ± 0.1 | protein stability index (ubr1∆): 2.43 ± 0.078

YLLASLKDSKDFDESLK [RPN9]
protein stability index (doa10∆): 2.69 ± 0.083 | protein stability index (pdr5∆): 2.82 ± 0.088 | protein stability index (san1∆): 2.82 ± 0.099 | protein stability index (ubr1∆): 2.52 ± 0.084

YILANHYLSRVLSDQVG [YJL039C/NUP192]
protein stability index (doa10∆): 2.87 ± 0.064 | protein stability index (pdr5∆): 2.98 ± 0.078 | protein stability index (san1∆): 2.72 ± 0.07 | protein stability index (ubr1∆): 2.54 ± 0.049

LLKKELLTIEPKLKEAT [SMC2]
protein stability index (doa10∆): 3.22 ± 0.052 | protein stability index (pdr5∆): 3.14 ± 0.064 | protein stability index (san1∆): 3.11 ± 0.046 | protein stability index (ubr1∆): 3.21 ± 0.039

EHKQLVAEIVQNVISLG [RPC82]
protein stability index (doa10∆): 2.2 ± 0.067 | protein stability index (pdr5∆): 1.46 ± 0.13 | protein stability index (san1∆): 2.16 ± 0.25 | protein stability index (ubr1∆): 1.8 ± 0.1

MSTDSIVKASNWRLVEV [RPL14A]
protein stability index (doa10∆): 2.82 ± 0.1 | protein stability index (pdr5∆): 1.44 ± 0.13 | protein stability index (ubr1∆): 1.71 ± 0.087

NVVEADLKRFVDESLLS [QCR2]
protein stability index (doa10∆): 3.14 ± 0.1 | protein stability index (pdr5∆): 3.43 ± 0.1 | protein stability index (san1∆): 3.26 ± 0.055 | protein stability index (ubr1∆): 3.46 ± 0.051

KLAAIVEIIDQKKVLID [RPL14A]
protein stability index (doa10∆): 2.8 ± 0.18 | protein stability index (pdr5∆): 2.69 ± 0.088 | protein stability index (san1∆): 2.91 ± 0.072 | protein stability index (ubr1∆): 2.73 ± 0.062

PIKNRTSKSFSKLLYDD [SIN4]
protein stability index (doa10∆): 2.63 ± 0.07 | protein stability index (pdr5∆): 2.73 ± 0.045 | protein stability index (san1∆): 2.22 ± 0.086 | protein stability index (ubr1∆): 2.64 ± 0.048

FSSPAALMKTLIKFVDL [NUT1]
protein stability index (doa10∆): 1.98 ± 0.083 | protein stability index (pdr5∆): 1.68 ± 0.057 | protein stability index (san1∆): 1.95 ± 0.12 | protein stability index (ubr1∆): 1.78 ± 0.12

TLKLRARQRGKLKKSEE [SRP68]
protein stability index (doa10∆): 3.44 ± 0.15 | protein stability index (pdr5∆): 3.27 ± 0.11 | protein stability index (san1∆): 3.36 ± 0.067 | protein stability index (ubr1∆): 3.67 ± 0.21

DAENEWNVEKFKKDFEV [RPC40]
protein stability index (doa10∆): 1.39 ± 0.12 | protein stability index (pdr5∆): 1.7 ± 0.21 | protein stability index (san1∆): 1.85 ± 0.16 | protein stability index (ubr1∆): 1.82 ± 0.11

GRLEIFKIHTAKVKKTG [RPT4]
protein stability index (doa10∆): 2.13 ± 0.11 | protein stability index (pdr5∆): 2.89 ± 0.12 | protein stability index (san1∆): 2.33 ± 0.19 | protein stability index (ubr1∆): 2.51 ± 0.097

VRLGEEDMIRSVFDATS [RPN1]
protein stability index (san1∆): 3.12 ± 0.23

QSLGLDDLQKFNGIENQ [ISW2]
protein stability index (doa10∆): 2.77 ± 0.1 | protein stability index (pdr5∆): 2.73 ± 0.082 | protein stability index (san1∆): 2.44 ± 0.07 | protein stability index (ubr1∆): 2.69 ± 0.043

ALSYAALILADSEIEIS [RPP1A]
protein stability index (doa10∆): 1.8 ± 0.058 | protein stability index (pdr5∆): 1.93 ± 0.062 | protein stability index (san1∆): 1.78 ± 0.06 | protein stability index (ubr1∆): 1.9 ± 0.04

NYQYKIQELRKLLKSLL [MED7]
protein stability index (doa10∆): 1.43 ± 0.07 | protein stability index (pdr5∆): 1.88 ± 0.095 | protein stability index (san1∆): 2.28 ± 0.22 | protein stability index (ubr1∆): 1.81 ± 0.072

AHIAKNLINLSIGASIA [YCS4]
protein stability index (doa10∆): 1.34 ± 0.068 | protein stability index (pdr5∆): 1.37 ± 0.072 | protein stability index (san1∆): 1.94 ± 0.17 | protein stability index (ubr1∆): 1.78 ± 0.057

IKKYASVVRVLVHTQIR [RPL3]
protein stability index (doa10∆): 1.87 ± 0.064 | protein stability index (pdr5∆): 2.32 ± 0.074 | protein stability index (san1∆): 1.62 ± 0.11 | protein stability index (ubr1∆): 2.13 ± 0.044

YLKGATGHSQGLVTAVA [FAS1]
protein stability index (ubr1∆): 3.86 ± 0.23

IEIEDEKVSSVLSALEG [RPP2A]
protein stability index (doa10∆): 2.88 ± 0.037 | protein stability index (pdr5∆): 2.29 ± 0.034 | protein stability index (san1∆): 2.81 ± 0.029 | protein stability index (ubr1∆): 2.449 ± 0.024

RWEMEAFGEFSLEGCVE [FAS2]
protein stability index (doa10∆): 3.28 ± 0.17 | protein stability index (pdr5∆): 3.36 ± 0.16 | protein stability index (san1∆): 2.98 ± 0.095 | protein stability index (ubr1∆): 2.83 ± 0.14

NNSTSNANTVFSERAAM [SWI1]
protein stability index (doa10∆): 2.63 ± 0.06 | protein stability index (pdr5∆): 3.27 ± 0.097 | protein stability index (san1∆): 2.97 ± 0.062 | protein stability index (ubr1∆): 3.24 ± 0.089

SKKQRNNGSKDHGDGIL [RPN9]
protein stability index (doa10∆): 3.37 ± 0.13 | protein stability index (pdr5∆): 2.85 ± 0.097 | protein stability index (san1∆): 3.27 ± 0.057 | protein stability index (ubr1∆): 2.78 ± 0.053

KPQLKFKSPIDNSESHP [RRP6]
protein stability index (doa10∆): 2.77 ± 0.083 | protein stability index (pdr5∆): 3.06 ± 0.06 | protein stability index (san1∆): 2.89 ± 0.084 | protein stability index (ubr1∆): 3.12 ± 0.034

PTATPSPFRPLEKTSRI [YMR153W/NUP53]
protein stability index (doa10∆): 2.89 ± 0.1 | protein stability index (pdr5∆): 2.51 ± 0.058 | protein stability index (san1∆): 2.57 ± 0.11 | protein stability index (ubr1∆): 2.81 ± 0.054
